What all share (assay): cell_activity; E. coli
Holding throughout (conditions): tags: 6-His

The target of one series is T1, sN-TALER IV-3.2 (synthetic).
T1 chain: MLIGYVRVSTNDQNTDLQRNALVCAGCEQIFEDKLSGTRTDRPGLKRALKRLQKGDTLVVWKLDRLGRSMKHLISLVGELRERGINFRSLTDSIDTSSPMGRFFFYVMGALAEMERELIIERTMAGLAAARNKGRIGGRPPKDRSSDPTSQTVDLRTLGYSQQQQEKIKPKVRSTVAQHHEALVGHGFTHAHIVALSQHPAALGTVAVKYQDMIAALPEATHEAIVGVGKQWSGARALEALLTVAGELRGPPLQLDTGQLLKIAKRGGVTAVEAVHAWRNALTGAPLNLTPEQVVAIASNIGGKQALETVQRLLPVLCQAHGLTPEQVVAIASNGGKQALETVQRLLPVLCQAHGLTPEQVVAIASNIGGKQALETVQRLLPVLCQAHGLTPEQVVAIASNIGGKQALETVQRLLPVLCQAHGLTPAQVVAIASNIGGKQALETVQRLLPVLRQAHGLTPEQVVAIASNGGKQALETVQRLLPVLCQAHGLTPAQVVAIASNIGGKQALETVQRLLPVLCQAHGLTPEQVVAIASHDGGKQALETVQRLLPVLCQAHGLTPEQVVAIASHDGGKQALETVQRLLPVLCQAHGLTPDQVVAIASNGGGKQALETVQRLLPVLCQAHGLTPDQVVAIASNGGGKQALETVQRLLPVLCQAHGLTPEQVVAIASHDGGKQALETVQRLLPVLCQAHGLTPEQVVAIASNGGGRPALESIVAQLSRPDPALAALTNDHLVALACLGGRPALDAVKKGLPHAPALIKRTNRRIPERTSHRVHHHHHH
How it is done:
(§1) To test for recombination, E. coli DH5alpha cells were co-transformed with different combinations of TALER expression construct and TALER reporter construct pairs (Tables 6 and 7). The N-TALER expression and reporter constructs were in an approximate 1:1 mass ratio during the transformation. The co-transformed bacteria were plated on media with chloramphenicol, kanamycin, and X-gal then incubated at 37° C. for 18 to 36 hours. Control samples consisted of transformations using the reporter construct alone. Control transformants were similarly plated. The bacterial transformation protocol was either heat shock or electroporation per standard molecular biology techniques.

In series [1] the target is T2, sN-TALER IV-2 (GinH106Y-TALE13) (synthetic).
T2 chain: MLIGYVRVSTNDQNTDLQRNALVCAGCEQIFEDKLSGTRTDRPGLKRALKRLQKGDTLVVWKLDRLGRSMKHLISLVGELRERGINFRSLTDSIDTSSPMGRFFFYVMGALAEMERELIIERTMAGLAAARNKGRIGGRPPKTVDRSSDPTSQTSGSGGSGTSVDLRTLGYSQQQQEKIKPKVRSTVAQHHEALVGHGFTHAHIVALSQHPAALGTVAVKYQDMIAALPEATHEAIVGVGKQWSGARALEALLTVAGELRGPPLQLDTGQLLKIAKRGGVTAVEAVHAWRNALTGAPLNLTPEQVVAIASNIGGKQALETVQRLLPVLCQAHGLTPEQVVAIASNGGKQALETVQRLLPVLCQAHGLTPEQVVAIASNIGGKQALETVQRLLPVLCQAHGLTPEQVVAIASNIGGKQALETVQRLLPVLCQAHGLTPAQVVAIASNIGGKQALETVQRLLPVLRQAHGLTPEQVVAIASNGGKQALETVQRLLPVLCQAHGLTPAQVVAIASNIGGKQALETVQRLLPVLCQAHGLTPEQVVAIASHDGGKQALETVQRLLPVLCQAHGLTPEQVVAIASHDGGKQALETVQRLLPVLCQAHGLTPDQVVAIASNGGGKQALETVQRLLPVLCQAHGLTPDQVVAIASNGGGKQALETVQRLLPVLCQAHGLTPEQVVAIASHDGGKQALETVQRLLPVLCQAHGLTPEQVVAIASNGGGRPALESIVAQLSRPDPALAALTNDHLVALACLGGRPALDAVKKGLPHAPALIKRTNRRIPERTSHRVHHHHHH
How it is done: as §1

The target of a further series is T3, sN-TALER IV-3 (synthetic).
T3 chain: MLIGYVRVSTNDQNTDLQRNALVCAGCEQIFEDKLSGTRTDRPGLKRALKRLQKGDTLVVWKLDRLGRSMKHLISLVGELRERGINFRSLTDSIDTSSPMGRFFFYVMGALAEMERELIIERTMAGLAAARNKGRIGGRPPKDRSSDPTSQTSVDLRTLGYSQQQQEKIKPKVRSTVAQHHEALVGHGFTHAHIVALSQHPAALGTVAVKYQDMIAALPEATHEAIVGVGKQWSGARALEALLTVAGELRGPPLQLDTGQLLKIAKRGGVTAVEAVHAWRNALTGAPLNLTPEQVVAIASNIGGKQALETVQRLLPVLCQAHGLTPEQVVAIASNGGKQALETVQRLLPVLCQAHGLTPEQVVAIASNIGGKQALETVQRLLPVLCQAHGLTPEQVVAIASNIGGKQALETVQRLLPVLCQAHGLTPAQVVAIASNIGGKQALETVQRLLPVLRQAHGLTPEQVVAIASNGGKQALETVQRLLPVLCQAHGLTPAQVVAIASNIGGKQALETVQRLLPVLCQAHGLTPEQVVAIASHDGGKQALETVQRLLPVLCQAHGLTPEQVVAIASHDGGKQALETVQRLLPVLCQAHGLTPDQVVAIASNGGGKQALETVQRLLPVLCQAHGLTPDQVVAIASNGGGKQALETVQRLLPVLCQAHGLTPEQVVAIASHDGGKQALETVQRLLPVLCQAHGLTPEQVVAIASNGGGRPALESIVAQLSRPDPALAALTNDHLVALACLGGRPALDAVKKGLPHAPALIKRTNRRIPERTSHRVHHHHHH
The procedure: as §1

The results in this text go back to patent US20140193915, “COMPOSITIONS AND METHODS FOR CUSTOM SITE-SPECIFIC DNA RECOMBINASES” (Monsanto Technology, LLC, published 2014).

B1: Gin18TALE+0 (dsDNA)
DNA 1: AGAAGGTATTTATACCAAAACCATGGTTTACATATAAATACCTTCT
DNA 2: AGAAGGTATTTATATGTAAACCATGGTTTTGGTATAAATACCTTCT
For B1, the activity with sN-TALER IV-3.2 came out at 3 score; in series [1] it was 1 score; with sN-TALER IV-3 it was 2 score.

B2: Gin20TALE+0 (dsDNA)
DNA 1: AGAAGGTATTTATATCCAAAACCATGGTTTACAGTATAAATACCTTCT
DNA 2: AGAAGGTATTTATACTGTAAACCATGGTTTTGGATATAAATACCTTCT
Consider B2, for which the activity (in the series with sN-TALER IV-3.2; in series [1]; in the series with sN-TALER IV-3) was 1 score throughout.
